According to article doi:10.1101/452920:
Changes are numbered by the printed parent chain. Where two headings read alike, the source gives them in different places.

Columns and labels:
Assay in all cases: fluorescence anisotropy
[1] = target: T1, MRPP1 (Δ39);MRPP2;MRPP3 (Δ95) (human;human;human, UniProt Q7L0Y3;Q99714;O15091 40-403;1-261;96-583, del1-39||del1-95)
T1 sequence 1: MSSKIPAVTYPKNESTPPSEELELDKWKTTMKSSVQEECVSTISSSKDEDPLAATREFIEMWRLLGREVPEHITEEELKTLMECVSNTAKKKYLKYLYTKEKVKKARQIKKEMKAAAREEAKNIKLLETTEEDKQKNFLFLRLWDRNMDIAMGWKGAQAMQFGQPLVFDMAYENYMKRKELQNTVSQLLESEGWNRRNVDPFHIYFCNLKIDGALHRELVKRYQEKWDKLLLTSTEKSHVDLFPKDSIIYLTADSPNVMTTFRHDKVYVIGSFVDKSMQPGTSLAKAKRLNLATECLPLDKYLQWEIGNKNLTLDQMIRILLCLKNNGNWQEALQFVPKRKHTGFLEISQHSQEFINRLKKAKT
T1 sequence 2: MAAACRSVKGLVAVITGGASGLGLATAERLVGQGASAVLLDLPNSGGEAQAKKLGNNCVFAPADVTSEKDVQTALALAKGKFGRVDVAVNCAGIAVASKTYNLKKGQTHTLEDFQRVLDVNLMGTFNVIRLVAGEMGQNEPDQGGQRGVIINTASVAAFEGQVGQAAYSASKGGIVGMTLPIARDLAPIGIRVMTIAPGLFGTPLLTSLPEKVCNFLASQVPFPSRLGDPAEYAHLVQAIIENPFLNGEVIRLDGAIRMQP
T1 sequence 3: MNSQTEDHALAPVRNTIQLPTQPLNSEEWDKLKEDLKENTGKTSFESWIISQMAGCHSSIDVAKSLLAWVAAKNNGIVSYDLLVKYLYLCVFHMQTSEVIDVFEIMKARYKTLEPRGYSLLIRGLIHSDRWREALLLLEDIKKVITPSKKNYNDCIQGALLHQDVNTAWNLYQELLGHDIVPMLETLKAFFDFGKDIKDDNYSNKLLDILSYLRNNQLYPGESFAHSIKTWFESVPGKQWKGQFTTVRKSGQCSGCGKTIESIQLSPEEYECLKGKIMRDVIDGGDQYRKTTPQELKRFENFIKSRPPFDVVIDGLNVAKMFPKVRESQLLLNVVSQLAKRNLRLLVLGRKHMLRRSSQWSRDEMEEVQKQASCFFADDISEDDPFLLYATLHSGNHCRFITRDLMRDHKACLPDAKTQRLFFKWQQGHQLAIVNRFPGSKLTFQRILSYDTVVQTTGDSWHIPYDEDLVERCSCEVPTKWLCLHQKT

MRPP1 (Δ39);MRPP2 [2] = target: T2, MRPP1 (Δ39);MRPP2 (human;human, UniProt Q7L0Y3;Q99714 40-403;1-261, del1-39|)
T2 sequence 1: T1 sequence 1
T2 sequence 2: T1 sequence 2

MRPP3 (Δ95) = target: T3, MRPP3 (Δ95) (human, UniProt O15091 96-583, del1-95)
T3 sequence: T1 sequence 3

[3] = target: T1, MRPP1 (Δ39);MRPP2;MRPP3 (Δ95); remark: listed apart in the source
MRPP1 (Δ39);MRPP2 [4] = target: T2, MRPP1 (Δ39);MRPP2; remark: listed apart in the source

B1: (mt)pre-tRNAVal7:0 (structured_RNA)
RNA: GACGAACCAGAGUGUAGCUUAACACAAAGCACCCAACUUACACUUAGGAGAUUUCAACUUAACUUGACCGCUCUGA
binding result [1]: binds
binding result (MRPP1 (Δ39);MRPP2 [2]): binds
Kd (MRPP3 (Δ95)): 21.7 ± 2.6 µM

B2: (mt)pre-tRNAVal/C9 (structured_RNA)
RNA: B1 RNA with A16C
binding result [3]: binds
binding result (MRPP1 (Δ39);MRPP2 [4]): binds
